Laboratory results from the nanobody polyreactivity screen of Harvey et al. (2022).

Test: yeast display, Sf9 membrane polyspecificity reagent, FACS + sequencing; frameworks hold sequencing errors
Outline: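 Galactose induction of a Saccharomyces cerevisiae BJ5465 synthetic nanobody display library ran 36–48 hours. The cells were then stained for 1 hour at 4 °C with 10% biotinylated, detergent-solubilized Sf9 membrane reagent, pulled down on streptavidin microbeads and FACS-sorted into low and high (top ~1%) gates on expression and reagent-binding fluorescence. Labels for polyreactivity follow the gate of origin.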
With “QVQLVESGGGLVQAGGSLRLSCAASGSNFVTNAMGWYRQAPGKERELVAAISVSGGSTYYADSVKGRFTFSRDNAKNTVYLQMNSLKPEDTEVYYCAADGFIGCRHIYEYWGQGTQVTVSS” the “polyreactivity (PSR sort gate)” value was “low polyreactivity”.
In the case of “QVQLVESGGGLVQAGGSLRLSCAASGSNFVYNAMGWYRQAPGKERELVAAISGSGDSTYYADSVKGRFTISRDNAKNTVYLQMNSLKPEDTAVYYCAARMSTADFYKGDYWGQGTQVTVSS”, the “polyreactivity (PSR sort gate)” value is reported as “low polyreactivity”.
With “QVQLVESGGGLVQAGGSLRLSCAASGSNKQNAMGWYRQSPGKERELLARISKYGGSTYADSVKGRFTISRDNAKNTVYLQMNSLKPEDTAVYYCNAVKRDRNHHATKCEYAYWGQGTPVTVSS” the “polyreactivity (PSR sort gate)” value was “low polyreactivity”.
With “QVQLVESGGGLVQAGGSLRLSCAASGSNLSAYAMGWYRQAPGKERELVAAISWSGGSTYYADSVKGRFTISRDNAKNTVYFQMNSLKPEDTAVYYCATVNKKWRRYDYWGQGSQVTVSS” the “polyreactivity (PSR sort gate)” value was “high polyreactivity”.
With “QVQLVESGGGLVQAGGSLRLSCAASGSPVSRYALGWYRQAPGKERELVAAFSWGGNTYYADSVKGRFTISRDNAKNTVYLQMKSLKPEDTAVYYCNRYSKLYNTMDYWGQGTQVTVSS” the “polyreactivity (PSR sort gate)” value was “high polyreactivity”.
In the case of “QVQLVESGGGLVQAGGSLRLSCAASGSRNAMGWYRQAPGKESEFVAAITWNGGSTYYADSVKGRFTISRDNAKNTVYLQMNSLKPEDTAVYYCNKREVFIYGTTYDYWRQGTQVTVSS”, the “polyreactivity (PSR sort gate)” value is reported as “low polyreactivity”.
In the case of “QVQLVESGGGLVQAGGSLRLSCAASGSSFAKYAMGWYRQAPGKERELVATISWSGTSTYYADSVKGRFTISRDNAKNTVYLQMNSLKPEDTAVYYCDADTECVGVNHIYDYWGQGNQVTVSS”, the “polyreactivity (PSR sort gate)” value is reported as “low polyreactivity”.
With “QVQLVESGGGLVQAGGSLRLSCAASGSSFDIYVMGWYRQAPGKERELLAAISRVGNTSYADSVKGRFTISRDNGKNTVYLQMNKHETGIYRGHYCGAGLVGAGYITYNDYDYWGQGTQVSVSS” the “polyreactivity (PSR sort gate)” value was “low polyreactivity”.
For “QVQLVESGGGLVQAGGSLRLSCAASGSSFDPYAMGWYRQAPGKERELVATITYSGGRTYYADSVKGRFTISRDNAKNTVYLQMNSLKPEDTAVYYCAADWDPGYYVQYGYDYWGQGTQVTVSS”, the “polyreactivity (PSR sort gate)” value was “low polyreactivity”.
For “QVQLVESGGGLVQAGGSLRLSCAASGSSFRIYAMGWYRQAPGKERELVAAISWSSGSTYYADSVKGRFTISRDNAKNTDYLPMNSLKPEDTAVYYCATYARRSGYYYWGQGTQVTVSS”, the “polyreactivity (PSR sort gate)” value was “high polyreactivity”.
With “QVQLVESGGGLVQAGGSLRLSCAASGSSFRRYAMGWYRQAPGKERELVATIRSGGSTTYADSVKGRFTISRDNAKNTVYLQMNSLKPEDTAVYFFAAGTKPSYYYWGQGTQVTVSS” the “polyreactivity (PSR sort gate)” value was “low polyreactivity”.
In the case of “QVQLVESGGGLVQAGGSLRLSCAASGSSFRSNDMGWYRQAPGKERELVARITSSVGSTYYADSVKGRFTISRDNAKNTVYLQMNSLKPEDTAVYYCAKRYYHYPYGYRDYDYWGQGTQVTVSS”, the “polyreactivity (PSR sort gate)” value is reported as “low polyreactivity”.
With “QVQLVESGGGLVQAGGSLRLSCAASGSSFSSYAMGWYRQAPGKERELVASISRRGGSTYYADSVKGRFTISRDNAKNTGYLQMNSLNPEDTAVYYCNAPYAGMGYWGQGTQVTVSS” the “polyreactivity (PSR sort gate)” value was “low polyreactivity”.
In the case of “QVQLVESGGGLVQAGGSLRLSCAASGSSKLRLWDGIDRRLGQKGSWLPLFVLVVLRNYADSVKGRFTISSDNAKNTVYLQMNSLKPEDTAVYYCAATPIGSGGWGDYWGQGTQVTVSS”, the “polyreactivity (PSR sort gate)” value is reported as “low polyreactivity”.
For “QVQLVESGGGLVQAGGSLRLSCAASGSSLTYNAMGWYRQAPGKERELVAVISARGGRTYYADSVKGRFTISRDNAKNTVYLQMNSLKPEDTAVYYCAAVFYYSYYRITSGDYWGQGTQVTVSS”, the “polyreactivity (PSR sort gate)” value was “high polyreactivity”.
With “QVQLVESGGGLVQAGGSLRLSCAASGSTCGTYAMGWYRQAPGKERELVATISLSGGSTYYADSVKGRFTISRDNAKNTVYLQMNSLKPEDTAVYYCTVKSSYSEYDYWGQGTQVTVSS” the “polyreactivity (PSR sort gate)” value was “low polyreactivity”.
For “QVQLVESGGGLVQAGGSLRLSCAASGSTCSRNAMGWYRQAPGKERELVAAINYSGGITYYADSVKGRFTISRDNAKNTVYLQMNSLKPEDTAVYYGAAVATNVPTHGRPSRRAYDYWGQGTQVTVSS”, the “polyreactivity (PSR sort gate)” value was “low polyreactivity”.
For “QVQLVESGGGLVQAGGSLRLSCAASGSTCWSNAMGWYRQAPGKERELVAGISWSDGSTYADSVKGRFTISRDNAKNTVYLQMNSLKPEDTAVYYCAAADNYRGYTYEYDYWGQGTQVTVSS”, the “polyreactivity (PSR sort gate)” value was “low polyreactivity”.
With “QVQLVESGGGLVQAGGSLRLSCAASGSTFAANAMGWYRQAPGKERELFAVIRRGGSTTYADSVKGRFTISRDNAKNTVYLQMNSLKPEDTEVYYCNARVTLGRPLFTYLVRYEYWGQGTQVTVSS” the “polyreactivity (PSR sort gate)” value was “high polyreactivity”.
In the case of “QVQLVESGGGLVQAGGSLRLSCAASGSTFAANAMGWYRQAPGKERELVAAITSSGGSTYYADSVKGRFTISLDNEKNTVYLQMNSLKPEDTAVYYCNKDIERYVRIYDSWGQGTQVTVSS”, the “polyreactivity (PSR sort gate)” value is reported as “low polyreactivity”.
In the case of “QVQLVESGGGLVQAGGSLRLSCAASGSTFADNAMGWYRQAPGKERELVATITDGGSTNYADSVKGRFTISRDNAKNTVYLQMNSLKPEDTAVYYCNADTHARWTGVKGTYSDYDYWGQGTQVTVSS”, the “polyreactivity (PSR sort gate)” value is reported as “low polyreactivity”.
For “QVQLVESGGGLVQAGGSLRLSCAASGSTFADYVMGWYRQAPGKERELVAAISRSGGSTYYADSEKGRFTISRDTAKNTVYLQTNSLKPEDTAVYYCAAVKARRYDYWGQGTQVTVSS”, the “polyreactivity (PSR sort gate)” value was “high polyreactivity”.
In the case of “QVQLVESGGGLVQAGGSLRLSCAASGSTFAFNAMGWYRHAPGKERELVATISQSGGSTYYADSVKGRFTFSRDNAKNTVYLQKNSLKPEDTSVYYCAKRYWSKWYGRYDYWRQGTQVTVSS”, the “polyreactivity (PSR sort gate)” value is reported as “low polyreactivity”.
With “QVQLVESGGGLVQAGGSLRLSCAASGSTFAFNAMGWYRQAPGKERELVATISQSGGSTYYADSVKGRFTISRDNAKNTVYLQMNSLKPEDTAVYYCAKRYWSKWYGRYEYWGQGTQVTVSS” the “polyreactivity (PSR sort gate)” value was “low polyreactivity”.
With “QVQLVESGGGLVQAGGSLRLSCAASGSTFAFYDMGWYRQAPGKERELVAAISQSDGDTYYADSVKGRFTISRDNAKNTVYLQMNSLKPEDTAVYYCAAETSHNPEYERGSDYWGQGTQVTVSS” the “polyreactivity (PSR sort gate)” value was “low polyreactivity”.
With “QVQLVESGGGLVQAGGSLRLSCAASGSTFAGNAMGWYRQAPGKERELVAGITSSGARTYYADSVKGRFTISRDNAKNTVYLQMNSLKPEDTAVYYCNKYHFSPYDYWGQGTQVTVSS” the “polyreactivity (PSR sort gate)” value was “high polyreactivity”.
For “QVQLVESGGGLVQAGGSLRLSCAASGSTFAGYAMGWYRQAPGKERELVAAISKRGTSTYYADSVKGRFTISRDNAKNTVYLQMNSLKPEDTAVYYCAARTYASYFKLYYWGQGTQVTVSS”, the “polyreactivity (PSR sort gate)” value was “high polyreactivity”.
With “QVQLVESGGGLVQAGGSLRLSCAASGSTFAHNAMGWYRQAPGKERELVAAISRRGGSTYYADSVKGRFTISRDNAQNTVYLQMNSLKPEDTAVYYCNAVAHNVRVYRFYPGWAGLDYWGQGTQVTVSS” the “polyreactivity (PSR sort gate)” value was “high polyreactivity”.
For “QVQLVESGGGLVQAGGSLRLSCAASGSTFAHNAMGWYRQAPGKERELVATISGSGGTTRYADSVKGRFTISRDNAKNTVYLQMNSLKPEDTAGYYCAAQSSTPKLYDYWGQGTQVTVSS”, the “polyreactivity (PSR sort gate)” value was “low polyreactivity”.
In the case of “QVQLVESGGGLVQAGGSLRLSCAASGSTFAHYAMGWYRQAPGKERELVAAITTSGSSTYYADSVKGRFTISRDNAKNTVYLQMNSLKPEDTAVYYCNARGSYYHYRGERNYWGQGTQVTVSS”, the “polyreactivity (PSR sort gate)” value is reported as “low polyreactivity”.
In the case of “QVQLVESGGGLVQAGGSLRLSCAASGSTFAKNAMGLYRQAPGKERELVAAISRGGNTYYADSVKGRFTISRDNAKNTVYLQMNSLKPEDTAVYYCAKLPYTRNYLGSLYDYWGQCTQVTVSS”, the “polyreactivity (PSR sort gate)” value is reported as “high polyreactivity”.
For “QVQLVESGGGLVQAGGSLRLSCAASGSTFAKNTMGWYRQAPGKERELVAAISTSGGSTYYADSVKVRFTISRDNAKNTVYLQMNSLKPEDTAVYYCAARAFQYYRAMDYWGQGTQVTVSS”, the “polyreactivity (PSR sort gate)” value was “low polyreactivity”.
In the case of “QVQLVESGGGLVQAGGSLRLSCAASGSTFAKYAMGWYRQAPGKERELVASIRLSGGSTYYADSVKGRFTISRDNAKNTVYLQMNSLKPEDTALYYCHKQFATFFYGFDYYYWGQGTQVTVSS”, the “polyreactivity (PSR sort gate)” value is reported as “low polyreactivity”.
For “QVQLVESGGGLVQAGGSLRLSCAASGSTFAKYTMGWYRQAPGKERELVAAISQRGGSTYYADSVKGRFTISRDNAKNTVYLQMNSLKPEDTAVYYCNVRAYAWRYEYWGQGTQVTVSS”, the “polyreactivity (PSR sort gate)” value was “high polyreactivity”.
In the case of “QVQLVESGGGLVQAGGSLRLSCAASGSTFALYAMGGSRPAPGKERELVAVINSGGSTYYADSVKGRFTISRDNAKNTVYLLMNSLKPEDTAVSYCATVYVWAYRGTDSSYRFDYWGKGTQVTVSS”, the “polyreactivity (PSR sort gate)” value is reported as “low polyreactivity”.
For “QVQLVESGGGLVQAGGSLRLSCAASGSTFALYAMGWSRPAPGKERELVAAITWSGTGTYYADSVKGRFTISRDNAKNTVYLQMNSLKPEDTAVYYCNAEYWWWGLGNDYWGQGTQVTVSS”, the “polyreactivity (PSR sort gate)” value was “low polyreactivity”.
With “QVQLVESGGGLVQAGGSLRLSCAASGSTFALYGMGWYRQAPGKERELVAAINSGVSTNYADSVKGRFTISRDNAKNTVYLQMNSLKPEDTAVYYCNADYYIAPYDSWGQGTQVTVSS” the “polyreactivity (PSR sort gate)” value was “low polyreactivity”.
For “QVQLVESGGGLVQAGGSLRLSCAASGSTFAPYAMGWYRQAPGKERELVASISWRGGRTYYADSVKGRFTISRDNAKNTVYLQMNSLKPEDTAVYYCATSRYRVDRWGPPYRYDYWGQGTQVTVSS”, the “polyreactivity (PSR sort gate)” value was “high polyreactivity”.
For “QVQLVESGGGLVQAGGSLRLSCAASGSTFARNAMGWYRPAPGKERELVAAITNAGDTNYADSVKGRFTISRDNAKNTVYLQMNSLKPEDTAVYYCAADTRFYSGRGTVSGDYWGQGTQVTVSS”, the “polyreactivity (PSR sort gate)” value was “low polyreactivity”.
For “QVQLVESGGGLVQAGGSLRLSCAASGSTFARNAMGWYRQAHGKERELVAAITNAGDTNYADSVKGRFTISRDNAKNTVYLQMNSLKPVDTAVYYCAADPILIDEYWGQGTQVTVSS”, the “polyreactivity (PSR sort gate)” value was “low polyreactivity”.
For “QVQLVESGGGLVQAGGSLRLSCAASGSTFARNAMGWYRQAPGKERELVAAISSSGGRTYYADSVKGRFTISRDNAKNTVYLQMNSLKPEDTAVYSCAARTFGSVHSYRGGYWGQGTQVTVSS”, the “polyreactivity (PSR sort gate)” value was “high polyreactivity”.
